Results reported in patent US20140363438A1, “NEUREGULIN ANTIBODIES AND USES THEREOF” (Genentech, Inc., priority 2011, published 2014).
Blank lines part the entries; values can stand above or below the molecule they belong to.

What was measured:
[1] = test system: lung tumors of LSL-K-rasG12D;p53Fl/+ mice; test: Lung tumor burden by micro-CT in LSL-K-rasG12D;p53Fl/+ mice; type: in vivo, mouse; conditions: FIG. 3A-B
Method: LSL-K-ras^G12D;p53^F1/+ were infected with Adeno-Cre virus and allowed to age for 16 weeks post-tumor induction. Baseline CT scans were performed at 16 weeks post-tumor induction (day 0 of study) and mice were grouped such that average starting tumor volume per group were equal. Mice were dosed once a week for three weeks with cisplatin (7 mg/kg) or phosphate-buffered saline, and bi-weekly with HER4ECD-Fc (25 mg/kg) or anti-ragweed IgG2A (25 mg/kg) for the duration of the study. Serial CT scans were performed at days 14, 45, and 66.
Two micro-CT systems (vivaCT 40 and vivaCT 75, Scanco Medical, Switzerland) were utilized for longitudinal lung imaging. Animals were randomized between micro-CT systems and rescanned on the same system used for baseline imaging. […] The imaging data were evaluated in the coronal plane using the image analysis software package Analyze (AnalyzeDirect, Inc., Lenexa, Kans., USA). Once the largest cross-sectional plane of each tumor was identified, estimates of maximal tumor diameter (d1) and the largest perpendicular diameter (d2) were determined. The total tumor burden was calculated as the sum of the cross-product of the directional estimates (d1×d2) of all the tumors. […]

[2] = test system: Calu3-shNRG1 xenograft tumors; test: Calu3-shNRG1 xenograft, NRG1 knockdown +/- chemotherapy; type: in vivo, human; conditions: dox induces NRG1 knockdown, chemotherapy paclitaxel + cisplatin
Method: Tumor cells (10-20 million) were transplanted into right flank of athymic nude mice. When tumor size reached ˜200 mm^3, the mice were divided into different treatment groups. Mice were then treated with either vehicle or chemotherapy (paclitaxel, i.v.+cisplatin, i.p.) for the initial studies. The chemotherapy dosing regimen was paclitaxel 20 mg/kg i.v. every other day for 5 doses and cisplatin 5 mg/kg i.p. on days 1 and 7 for the Calu3 model and days 1 and 14 for the H441 model. Regressed tumors and time matched vehicle controls were collected at least 1 week after the last dose of chemo. Tumors were dissociated using dispase/collagenase and samples were FACS sorted to collect the GFP positive tumor cells. For the NRG1 knockdown studies, the treatment groups were: sucrose, doxycycline (dox), chemotherapy+sucrose, and chemotherapy+doxycycline. […]
To determine the efficacy of NRG1-targeting in the Calu3 model, Calu3-shNRG1 tumor bearing mice were assigned to four groups; 1) vehicle+sucrose, 2) vehicle+dox, 3) chemotherapy+sucrose, and 4) chemotherapy+dox. […] Tumor volume was measured twice a week for the duration of the study.
The effect of NRG1 on tumor relapse was assessed by comparing the growth of tumors in the chemotherapy+sucrose with those in the chemotherapy+dox group. […] Therefore, the measured volumes were considerably larger than the actual tumor volume in the dox-treated groups. […]

EGF = EGF (UniProt P01133 971-1023); test: ELISA
Chain of EGF (P01133 971-1023 limits assumed): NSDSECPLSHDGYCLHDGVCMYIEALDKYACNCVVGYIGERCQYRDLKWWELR

HB-EGF = HB-EGF (UniProt Q99075 63-148, limits assumed); test: ELISA
Chain of HB-EGF (Q99075 63-148 limits assumed): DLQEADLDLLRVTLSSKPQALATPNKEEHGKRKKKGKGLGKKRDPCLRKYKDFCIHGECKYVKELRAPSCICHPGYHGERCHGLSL

Betacellulin (BTC) = target: T1, Betacellulin (BTC) (UniProt P35070 32-111); test: ELISA
T1 sequence (looked up): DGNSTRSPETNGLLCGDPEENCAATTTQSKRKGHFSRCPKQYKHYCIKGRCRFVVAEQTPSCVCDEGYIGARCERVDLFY

[3] = target: T2, Recombinant human Neuregulin 1-beta (rhNRG1b, Genentech) (human, UniProt Q02297 1-640); test: cell-based or functional assay
T2 sequence: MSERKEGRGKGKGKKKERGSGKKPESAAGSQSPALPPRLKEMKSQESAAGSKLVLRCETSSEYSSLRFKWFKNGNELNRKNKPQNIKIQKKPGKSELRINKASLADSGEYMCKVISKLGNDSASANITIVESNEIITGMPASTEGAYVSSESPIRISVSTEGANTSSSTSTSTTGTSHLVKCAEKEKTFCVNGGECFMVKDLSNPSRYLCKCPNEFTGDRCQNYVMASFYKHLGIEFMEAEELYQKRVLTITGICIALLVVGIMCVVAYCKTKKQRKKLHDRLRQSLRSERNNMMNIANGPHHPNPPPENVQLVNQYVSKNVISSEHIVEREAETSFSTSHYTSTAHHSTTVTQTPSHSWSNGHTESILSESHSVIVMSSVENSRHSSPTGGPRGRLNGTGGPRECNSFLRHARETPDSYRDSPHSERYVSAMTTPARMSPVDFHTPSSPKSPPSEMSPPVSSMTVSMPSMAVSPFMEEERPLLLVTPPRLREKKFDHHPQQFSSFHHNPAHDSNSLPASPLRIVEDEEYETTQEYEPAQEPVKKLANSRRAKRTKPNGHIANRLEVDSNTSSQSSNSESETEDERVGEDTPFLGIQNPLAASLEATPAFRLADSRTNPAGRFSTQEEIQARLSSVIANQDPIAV

[4] = target: T3, Recombinant human NRG1-α EGF domain (R&D Systems, cat#296-HR/CF) (human, UniProt Q02297 177-241); test: cell-based or functional assay
T3 sequence: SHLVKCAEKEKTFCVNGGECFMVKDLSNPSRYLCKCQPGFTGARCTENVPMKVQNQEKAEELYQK

[5] = target: T3, Recombinant human NRG1-α EGF domain …; test: competition ELISA on NRG1α; competitor whose signal is read: 526.02
[6] = target: T3, Recombinant human NRG1-α EGF domain …; test: competition ELISA on NRG1α; competitor whose signal is read: 526.90
[7] = target: T4, Recombinant human NRG1-β ECD domain (R&D Systems, cat#377-HB/CF) (human, UniProt Q02297-11 121-191, limits assumed); test: competition ELISA on NRG1β; competitor whose signal is read: 526.02
T4 construct: also called NRG1-beta; HRG1β
T4 sequence: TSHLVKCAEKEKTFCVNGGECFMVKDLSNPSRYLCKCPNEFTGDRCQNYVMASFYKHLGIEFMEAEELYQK

[8] = target: T4, Recombinant human NRG1-β ECD domain …; test: competition ELISA on NRG1β; competitor whose signal is read: 526.90
[9] = target: T3, Recombinant human NRG1-α EGF domain …; test: competition ELISA on NRG1α; self-competition, signal read: 538.24.71
[10] = target: T4, Recombinant human NRG1-β ECD domain …; test: competition ELISA on NRG1β; self-competition, signal read: 538.24.71
[11] = target: T3, Recombinant human NRG1-α EGF domain …; test: SPR (BIAcore T100), IgG captured by anti-human Fc, NRG1α injected; table under the head '250 nM NRG1-alpha'
Method: (§1) Binding affinities of anti-NRG1 IgGs were measured by Surface Plasmon Resonance (SRP) using a BIAcore™-T100 instrument. Anti-NRG1 human IgGs were captured by mouse anti-human Fc antibody (GE Healthcare, cat# BR-1008-39) coated on CM5 biosensor chips to achieve approximately 1000 response units (RU). […] Association rates (kₒₙ) and dissociation rates (koff) were calculated using a simple one-to-one Langmuir binding model (BIAcore Evaluation Software version 3.2). The equilibrium dissociation constant (KD) was calculated as the ratio koff/kₒₙ.

[12] = target: T4, Recombinant human NRG1-β ECD domain …; test: SPR (BIAcore T100), IgG captured by anti-human Fc, NRG1β injected; sensorgram shown for 6.25 nM (sheet: '6.25 mnM NRG beta')
Method: as §1

[13] = target: T3, Recombinant human NRG1-α EGF domain …; test: SPR (BIAcore T100), IgG captured by anti-human Fc, NRG1α injected; sensorgram shown for 6.25 nM (sheet: '6.25 mnM NRG alpha')
Method: as §1

[14] = target: T4, Recombinant human NRG1-β ECD domain …; test: SPR (BIAcore T100), IgG captured by anti-human Fc; table under the head '125nM NRG-beta'; this table is identical to that of FIG. 9 (NRG1-alpha) and does not fit the slow dissociation of the sensorgrams above it
[15] = target: T3, Recombinant human NRG1-α EGF domain …; test: competition ELISA on NRG1α; signal of 526.90 against rising 538.24.71

Molecule: N.N.[Cl][Pt][Cl] [cisplatin]
- tumor growth (average tumor burden and tumor growth rate) [1]: not significantly different

Molecule: C[C@H]1c2cccc(O)c2C(O)=C2C(=O)[C@]3(O)C(O)=C(C(N)=O)C(=O)[C@@H](N(C)C)[C@@H]3[C@@H](O)[C@@H]21 [vehicle+dox]
- tumor volume doubling time (TDT) [2]: 44.5 days

More lines, now with the values ahead:

- binding result (EGF): no binding
- binding result (HB-EGF): no binding
- binding result (Betacellulin (BTC)): no binding
- IC50 of inhibition of Her3 activation (phosphorylation), KIRA on MCF-7 cells, 0.2 nM rhNRG1b [3]: 0.12 nM
- IC50 of inhibition of Her3 activation (phosphorylation), KIRA on MCF-7 cells, 0.5 nM rhNRG1a [4]: 14 nM
- IC50 (read off the curve) [5]: ~5 nM
- IC50 (read off the curve) [6]: ~4 nM
- IC50 (read off the curve) [7]: ~2 nM
- IC50 (read off the curve) [8]: ~8 nM
- IC50 (read off the curve) [9]: ~3 nM
- IC50 (read off the curve) [10]: ~7 nM
- Kd [11]: 2 nM
- koff [11]: 0.03 s⁻¹
- kon [11]: 1.5e+07 M⁻¹ s⁻¹
- Kd [12]: 0.00192 nM
- koff [12]: 1.48e-06 s⁻¹
- kon [12]: 771000 M⁻¹ s⁻¹
- Kd [13]: 1.32 nM
- koff [13]: 0.00603 s⁻¹
- kon [13]: 4.57e+06 M⁻¹ s⁻¹
- Kd [14]: 2 nM
- koff [14]: 0.03 s⁻¹
- kon [14]: 1.5e+07 M⁻¹ s⁻¹
B1: anti-NRG1 antibody 538.24.71 (antibody, human IgG1, kappa, V domains shown)
VH: EVQLVESGGGLVQPGGSLRLSCAASGFTFSGTWIHWVRQAPGKGLEWVAAITPADGSTNYADSVKGRFTISADTSKNTAYLQMNSLRAEDTAVYYCATYMFAMDYWGQGTLVTVSS
VL: DIQMTQSPSSLSASVGDRVTITCRASQDVSISLAWYQQKPGKAPKLLIYGASNLESGVPSRFSGSGSGTDFTLTISSLQPEDFATYYCQQHYTLPFTFGQGTKVEIKR
notes: also called YW538.24.71

- binding result [15]: binds
B2: anti-NRG1 antibody 526.90 (antibody, human IgG1, V domains shown)
VH: EVQLVESGGGLVQPGGSLRLSCAASGFTFSGNAMSWVRQAPGKGLEWVSWIYPSGGNTYYADSVKGRFTISADTSKNTAYLQMNSLRAEDTAVYYCARSYILSYPSITWAFDYWGQGTLVTVSS
VL: DIQMTQSPSSLSASVGDRVTITCRASQSISSYLAWYQQKPGKAPKLLIYGASSRASGVPSRFSGSGSGTDFTLTISSLQPEDFATYYCQQSYSTPITFGQGTKVEIKR
notes: also called YW526.90
